We go through 1 substance from publication PMC7934257.

For orientation: stoichiometry N means the number of molecules, sites or subunits per partner or assembly.

In this test the target is D-allulose 3-epimerase (DaeB) from Bacillus sp. KCTC 13219 (Bacillus sp. KCTC 13219). In words: SEC; Superdex 200 Increase 10/300 GL, 50 mM Tris pH 8.0, 300 mM NaCl, 0.5 mL/min; calibrated with ribonuclease A, ovalbumin, conalbumin and aldolase; self-association of purified DaeB. A general note: In gel filtration, larger molecules generally elute earlier.

In turn, “D-allulose 3-epimerase (DaeB) from Bacillus sp. KCTC 13219 (enzyme)” had a stoichiometry N of 2.
